As usually defined, the Kd is the concentration at which binding is half-saturated. Read a low Kd as tighter binding.

Assay [1] addresses PD-1 on PD-1 reporter Jurkat cells. Briefly: cell-based or functional assay.
A further assay has as its target T1, cynomolgus PD-1 (cynomolgus).
T1 construct: also called cyno PD-1
Nature of the assay: BLI, antibody on AHC tip, soluble PD-1.

Another assay addresses T2, human PD-1 (human, UniProt Q15116 25-167, limits assumed).
T2 construct: also called huPD-1
Briefly: BLI, antibody on AHC tip, soluble PD-1. (In general: In BLI a coated tip is dipped into the sample, and binding shifts an interference pattern.)

In a further assay the target is T3, human MAdCAM (human, UniProt Q13477 19-317, limits assumed).
T3 construct: also called huMAdCAM
T3 sequence (looked up): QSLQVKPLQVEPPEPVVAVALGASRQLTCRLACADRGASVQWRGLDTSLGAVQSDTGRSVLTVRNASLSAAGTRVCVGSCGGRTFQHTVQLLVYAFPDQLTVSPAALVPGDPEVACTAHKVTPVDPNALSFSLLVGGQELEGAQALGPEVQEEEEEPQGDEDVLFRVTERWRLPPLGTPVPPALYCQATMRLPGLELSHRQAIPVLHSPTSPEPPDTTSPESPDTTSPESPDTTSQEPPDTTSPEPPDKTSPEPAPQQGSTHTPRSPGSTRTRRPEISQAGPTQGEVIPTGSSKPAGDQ
Briefly: BLI, antibody on AHC tip, soluble MAdCAM. The method, then:
(§1) Anti-human IgG Fc (AHC) biosensors were equilibrated in assay buffer for 20 minutes. Test article was diluted to 10 μg/mL in assay buffer (lx PBS, 1% BSA, 0.05% Tween20). A seven-point serial dilution of human and cynomolgus PD-1 or human, cynomolgus and mouse MAdCAM was prepared in assay buffer, starting at 1000 nM down to 15.625 nM. For PD-1 binding, test article was loaded on tips for 180 s followed by a 180 s association phase with PD-1 and 240 s dissociation phase in assay buffer. For MAdCAM binding, test article was loaded on tips for 180 s followed by a 120 s association phase with MAdCAM and 180 s dissociation phase in assay buffer. […] Accordingly, PMAB65 binds human, cyno, and mouse PD-1 and MAdCAM.

The target of another assay is T4, cynomolgus MAdCAM (cynomolgus).
T4 chain: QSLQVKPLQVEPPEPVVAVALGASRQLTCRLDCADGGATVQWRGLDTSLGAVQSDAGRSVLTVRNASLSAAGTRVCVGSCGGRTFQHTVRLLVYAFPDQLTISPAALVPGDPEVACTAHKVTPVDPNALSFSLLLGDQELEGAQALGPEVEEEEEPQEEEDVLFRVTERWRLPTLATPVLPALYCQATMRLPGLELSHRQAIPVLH
Nature of the assay: BLI, antibody on AHC tip, soluble MAdCAM. The method, then:
as §1

In another assay the target is T5, mouse MAdCAM (mouse, UniProt Q61826 22-364).
T5 sequence (looked up): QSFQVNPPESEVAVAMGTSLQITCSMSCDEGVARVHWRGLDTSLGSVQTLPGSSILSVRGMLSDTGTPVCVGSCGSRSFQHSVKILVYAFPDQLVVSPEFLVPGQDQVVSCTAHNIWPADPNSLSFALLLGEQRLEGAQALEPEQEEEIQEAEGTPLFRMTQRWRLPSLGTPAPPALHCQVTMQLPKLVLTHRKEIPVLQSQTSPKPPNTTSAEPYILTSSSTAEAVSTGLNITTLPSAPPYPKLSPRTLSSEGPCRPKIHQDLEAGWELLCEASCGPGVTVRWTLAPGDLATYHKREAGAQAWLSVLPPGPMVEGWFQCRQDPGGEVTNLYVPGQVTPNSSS
Nature of the assay: BLI, antibody on AHC tip, soluble MAdCAM. The method, then:
as §1

For a further assay, the target named is T6, mouse PD-1 (mouse, UniProt Q02242 25-167, limits assumed).
T6 sequence (looked up): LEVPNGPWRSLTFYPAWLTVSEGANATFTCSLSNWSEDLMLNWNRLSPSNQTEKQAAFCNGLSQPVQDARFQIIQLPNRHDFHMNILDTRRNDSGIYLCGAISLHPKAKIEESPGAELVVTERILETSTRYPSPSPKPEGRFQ
Briefly: BLI, antibody on AHC tip.

T2 sequence (Q15116 25-167 limits assumed): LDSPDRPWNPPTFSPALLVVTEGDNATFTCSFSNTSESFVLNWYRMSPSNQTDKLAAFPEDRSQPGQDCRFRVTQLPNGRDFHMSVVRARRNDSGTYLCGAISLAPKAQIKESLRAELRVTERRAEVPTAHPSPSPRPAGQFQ

B1: PMAB65 (bispecific antibody, human IgG1, kappa)
heavy: EVQLLESGGGLVQPGGSLRLSCAASGFTFSSYDMSWVRQAPGKGLEWVSGITISGGSTYYADSVKGRFTISRDNSKNTLYLQMNSLRAEDTAVYYCARGRGGSGWLDYWGQGTTVTVSSASTKGPSVFPLAPSSKSTSGGTAALGCLVKDYFPEPVTVSWNSGALTSGVHTFPAVLQSSGLYSLSSVVTVPSSSLGTQTYICNVNHKPSNTKVDKKVEPKSCDKTHTCPPCPAPEAAGAPSVFLFPPKPKDTLMISRTPEVTCVVVDVSHEDPEVKFNWYVDGVEVHNAKTKPREEQYNSTYRVVSVLTVLHQDWLNGKEYKCKVSNKALPAPIEKTISKAKGQPREPQVYTLPPSREEMTKNQVSLTCLVKGFYPSDIAVEWESNGQPENNYKTTPPVLDSDGSFFLYSKLTVDKSRWQQGNVFSCSVMHEALHNHYTQKSLSLSPGGGGGSGGGGSGGGGSEVQLLESGGGLVQPGGSLRLSCAASGFTFSSYWMHWVRQAPGKGLEWVSYISGSGGYTNYADSVKGRFTISRDNSKNTLYLQMNSLRAEDTAVYYCARDRPYYYDMDVWGKGTTVTVSSGGGGSGGGGSGGGGSGGGGSDIQMTQSPSSLSASVGDRVTITCRASQSISSSLAWYQQKPGKAPKLLIYAASSLQSGVPSRFSGSGSGTDFTLTISSLQPEDFATYYCQQYKSYPVTFGQGTKVEIK
light: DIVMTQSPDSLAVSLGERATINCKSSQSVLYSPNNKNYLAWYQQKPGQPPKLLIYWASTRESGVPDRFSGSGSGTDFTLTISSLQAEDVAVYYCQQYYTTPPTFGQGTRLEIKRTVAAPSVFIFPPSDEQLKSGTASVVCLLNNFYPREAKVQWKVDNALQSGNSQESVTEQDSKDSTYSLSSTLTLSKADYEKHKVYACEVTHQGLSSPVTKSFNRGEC
Turning to B1, the “PD-1 reporter Jurkat cells on test-article-loaded MAdCAM-expressing CHO cells; EC50” value in assay [1] is 0.78 nM. In assay [1], the “SHP-2 recruitment, Ig-tethered test article, PD-1 reporter Jurkat cells; EC50” value was determined as 3.04 nM. Further, the Kd with cynomolgus PD-1 was 30.3 nM; in the assay with human PD-1 it was 32.6 nM; with human MAdCAM, 75.5 nM; in the assay with cynomolgus MAdCAM, 24.3 nM; in the assay with mouse MAdCAM, 269 nM. For the same molecule, the binding result in the assay with mouse PD-1 is given as “no binding”.

Values taken from patent US20240301064A1 (published 2024).
